Measurements published in patent US20120172298A1, “GLP-1 AND FGF21 COMBINATIONS FOR TREATMENT OF DIABETES TYPE 2” (Novo Nordisk A/S, priority 2009, published 2012).

Test system: rat insulinoma beta-cells (INS-1)
Experiment: Cell viability of INS-1 beta-cells exposed to free fatty acids (MTT assay)
Assay type: cell-based
Conditions: 48 hours, FGF21 compound = F1 50 nM, GLP-1 compound = G1 50 nM, mean +/- SEM
Experimental: This ex vivo example investigates the influence of FGF21 and GLP-1 compounds on FFA (free fatty acid) induced apoptosis of rat insulinoma beta-cells (INS-1).
Compound F1 (Prospec, cat. no. CYT-474) was used as the FGF21 compound, and compound G1 was used as the GLP-1 compound.
INS-1 cells were seeded in 96-well plates (50000 cells/well) and incubated overnight in cell medium (RPMI 1640 medium (Gibco, cat. no. 61870-010), supplemented with 10% FCS (Gibco, cat. no. 10085-140), 1% Pen/Strep (Gibco, cat. no. 15140-114) and 0.5 ml beta-mercaptoethanol (Gibco, cat. no. 31350-010 (50 mM)). The FGF21 compound (50 nM) and the GLP-1 compound (50 nM) were added to the cells 1 hour before the cells were to be exposed to FFA. The FFA's were prepared as follows: Stock solutions of palmitic acid (Sigma P5585) and oleic acid (Sigma 01383) of 1M in DMSO were mixed 1:2 and heated to 60 degree Celsius. The FFA mix was then diluted 10 times in 0.1M NaOH. This mixture was then further diluted in cell medium to yield a FFA concentration of 1 mM. The FFAs were then added to the cells to a final concentration of 0.35 mM. […]

B1: Met-FGF21_human (protein, listed as Homo sapiens)
chain: HPIPDSSPLLQFGGQVRQRYLYTDDAQQTEAHLEIREDGTVGGAADQSPESLLQLKALKPGVIQILGVKTSRFLCQRPDGALYGSLHFDPEACSFRELLLEDGYNVYQSEAHGLPLHLPGNKSPHRDPAPRGPARFLPLPGLPPALPEPPGILAPQPPDVGSSDPLSMVGPSQGRSPSYAS
modifications: N-terminal Met; mat_peptide (1)..(181); DISULFID (75)..(93)
- Cell viability (MTT assay, A550) (FFA 0.00 mM): 1.19 +/− 0.05
- Cell viability (MTT assay, A550) (FFA 0.35 mM): 0.28 +/− 0.01
